Laboratory results reported in the supplement of paper PMC10567573.

B1: HDAC6 (parent)
chain: YVHHQALLDVKNIAHQNKFGEDMP
B2: ZNF449 (parent)
chain: EPHKCPECGKRFLRSSDLYRHQRL

Variants of: B1
Assay: protein stability index of a GFP-peptide fusion (GPS, HEK-293T) (PSI 1-6); higher = more stable
Conditions: c terminus: a fixed tail appended
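Also: lentivirally expressed fusions sorted by FACS into six bins by GFP to DsRed ratio, PSI derived from sequencing read proportions per bin multiplied by bin number.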

Row | Variant | protein stability index
1 | YVHHQALLDVKNIAHQNKFGEHMP [D22H] | 2.4
2 | YVHHQALLDVKNIAHQNKFGEWMP [D22W] | 2.14
3 | YVHHQALLDVKNIAHQNKFGEPMP [D22P] | 2.21
4 | YVHKQALLDVKNIAHQNKFGEDMP [H4K] | 1.78
5 | YVHCQALLDVKNIAHQNKFGEDMP [H4C] | 1.7
6 | YVHHQALLDVKCIAHQNKFGEDMP [N12C] | 1.42
7 | YVHHQALLDVKVIAHQNKFGEDMP [N12V] | 1.54
8 | YVHHQALLDVKAIAHQNKFGEDMP [N12A] | 2
9 | YVHHQALLDVKQIAHQNKFGEDMP [N12Q] | 1.57
10 | YVHHQALLDVKFIAHQNKFGEDMP [N12F] | 2.65
11 | YVHHQALLDVKNIAHQAKFGEDMP [N17A] | 2.83
12 | YVHHQALLDVKNIAHQYKFGEDMP [N17Y] | 1.57
13 | YVHHQALLDVKNIAHQWKFGEDMP [N17W] | 1.19
14 | YVHHQFLLDVKNIAHQNKFGEDMP [A6F] | 1.4
15 | YVHHQAFLDVKNIAHQNKFGEDMP [L7F] | 2.39
16 | YVHHQAPLDVKNIAHQNKFGEDMP [L7P] | 2.73
17 | YVHHQALLDVKNIAHQNKVGEDMP [F19V] | 1.83
18 | YVHHQALLDVKNIAHQNKGGEDMP [F19G] | 2.43
19 | YVHHQALLDVKNIAHQNKHGEDMP [F19H] | 2.53
20 | YVHHQALLDVKNIAHQNKYGEDMP [F19Y] | 1.96
21 | YVHHQALLDVKNIIHQNKFGEDMP [A14I] | 2.12
22 | YVHHQALLDVKNICHQNKFGEDMP [A14C] | 3.38

Row | Variant | protein stability index
23 | YVHHQALLDVKNITHQNKFGEDMP [A14T] | 1.82
24 | YVHHQALLCVKNIAHQNKFGEDMP [D9C] | 2.38
25 | YVHHQALLNVKNIAHQNKFGEDMP [D9N] | 2.66
26 | YVHHQALLDVKNIAHQNKFGEDHP [M23H] | 1.93
27 | YVHHQALLDVKNIAHQNKFGEDWP [M23W] | 1.49
28 | YVHHQALLDVKNIAHQNKFGEDTP [M23T] | 2.63
29 | YVHHQALLDVKNIAHQNKFGEDRP [M23R] | 1.97
30 | YVHHQALLDVKNIAHQNKFGEDGP [M23G] | 2.03
31 | YVHHQALLDVKNMAHQNKFGEDMP [I13M] | 2.47
32 | YVHHQALLDVKNTAHQNKFGEDMP [I13T] | 1.9
33 | YVHHQALLDVKNRAHQNKFGEDMP [I13R] | 1.96
34 | YVHHQALLDVKNIAHQNKFGHDMP [E21H] | 1.46
35 | YVHHQALLDVKNIAHQNKFGYDMP [E21Y] | 2.15
36 | YVHHQALLDVKNIAHQNKFGTDMP [E21T] | 2.01
37 | YVHHQALLDVKNIAHQNKFGNDMP [E21N] | 2
38 | YVHHQALLDVKNIALQNKFGEDMP [H15L] | 1.91
39 | YVHHQALLDVKNIAFQNKFGEDMP [H15F] | 1.51
40 | YVHHQALLDVKNIAPQNKFGEDMP [H15P] | 2.37
41 | NVHHQALLDVKNIAHQNKFGEDMP [Y1N] | 4.39
42 | GVHHQALLDVKNIAHQNKFGEDMP [Y1G] | 4.19
43 | YVHHQALLDVKNIAHQNWFGEDMP [K18W] | 1.9
44 | YVHHQALLDVKNIAHQNMFGEDMP [K18M] | 1.94

Row | Variant | protein stability index
45 | YVIHQALLDVKNIAHQNKFGEDMP [H3I] | 1.66
46 | YVCHQALLDVKNIAHQNKFGEDMP [H3C] | 1.89
47 | YVPHQALLDVKNIAHQNKFGEDMP [H3P] | 1.65
48 | YVHHQALLDVNNIAHQNKFGEDMP [K11N] | 1.98
49 | YVHHQALLDVRNIAHQNKFGEDMP [K11R] | 2.08
50 | YVHHQALLDVGNIAHQNKFGEDMP [K11G] | 1.95
51 | YWHHQALLDVKNIAHQNKFGEDMP [V2W] | 2.21
52 | YIHHQALLDVKNIAHQNKFGEDMP [V2I] | 1.81
53 | YDHHQALLDVKNIAHQNKFGEDMP [V2D] | 4.33
54 | YVHHQALLDVKNIAHQNKFGEDMA [P24A] | 1.46
55 | YVHHQALLDVKNIAHQNKFGEDMT [P24T] | 2.17
56 | YVHHQALLDVKNIAHQNKFGEDMW [P24W] | 2.05
57 | YVHHQALLDVKNIAHQNKFFEDMP [G20F] | 3.09
58 | YVHHQALLDVKNIAHQNKFCEDMP [G20C] | 1.83
59 | YVHHQALLDVKNIAHQNKFDEDMP [G20D] | 2.28
60 | YVHHQALCDVKNIAHQNKFGEDMP [L8C] | 2.43
61 | YVHHQALLDVKNIAHKNKFGEDMP [Q16K] | 1.49
62 | YVHHQALLDVKNIAHPNKFGEDMP [Q16P] | 2.3
63 | YVHHQALLDMKNIAHQNKFGEDMP [V10M] | 1.73
64 | YVHHQALLDCKNIAHQNKFGEDMP [V10C] | 2
65 | YVHHQALLDAKNIAHQNKFGEDMP [V10A] | 2.33
66 | YVHHQALLDPKNIAHQNKFGEDMP [V10P] | 2.15

Variants of: B2
Assay: as above
Conditions: c terminus: a fixed tail appended

Row | Variant | protein stability index
67 | EPHKCPECGKRFLRSSDLYRHQRT [L24T] | 4.06
68 | EPHKCPECGKRFLRSSDLYRHQRQ [L24Q] | 4.6
69 | EPHKCPECGKRFLRSSDLYRHQRV [L24V] | 3.82
70 | EPHKCPECGKRFLRSSDLYRHQRH [L24H] | 4.18
71 | EPHKCPECGKRFLRSSDLYRHQRA [L24A] | 3.83
72 | EPHKCPECGKRFLRSSDLYRHQRR [L24R] | 3.84
73 | EPHKCPECGKRFLRSSDLYRHQRF [L24F] | 3.23
74 | EPHKCPECGKRFLRSSDLYRHQRM [L24M] | 3.94
75 | EPHKCPECGKRFLRSSDLYRHQRK [L24K] | 4
76 | EPHKCPECGKRFLRSSDLYRHQRG [L24G] | 4.52
77 | EPHKCPECGKRFLRSSDLYRHQRP [L24P] | 3.85
78 | EPHKCPECGKRFLRSSDLYRHQRS [L24S] | 4.4
79 | EPHKCPECGKRFLRSSDLYRHQRC [L24C] | 4.97
80 | EPHKCPECGKRFLRSSDLYRHQRW [L24W] | 3.01
81 | EPHKCPECGKRFLRSSDLYRHQRE [L24E] | 4.95
82 | EPHKCPECGKRFLRSSDLYRHQRD [L24D] | 4.98
83 | EPHKCPECGKRFLRSSDLYRHQRY [L24Y] | 3.31
84 | EPHKCPECGKRFLRSSDLYRHQRI [L24I] | 3.63
85 | EPHKCPECGKRFLRSSDLYRHQRN [L24N] | 4.29
86 | EPHKCPECGKRFLRSSDLYRMQRL [H21M] | 2
87 | EPHKCPECGKRFLRSSDLYRLQRL [H21L] | 2.4
88 | EPHKCPECGKRFLRSSDLYRWQRL [H21W] | 1.29
89 | EPHKCPECGKRFLRSSDLYRKQRL [H21K] | 2.67
90 | EPHKCPECGKRFLRSSDLYRNQRL [H21N] | 2.12
91 | EPHKCPECGKRFLRSSDLYRIQRL [H21I] | 1.64
92 | EPHKCPECGKRFLRSSDLYRCQRL [H21C] | 2.15
93 | EPHKCPECGKRFLRSSDLYRTQRL [H21T] | 2.34
94 | EPHKCPECGKRFLRSSDLYRFQRL [H21F] | 2.25
